Laboratory results from PMC11213338.

Key:
GST-γb = experiment: GST pull-down; details: scale: relative anti-His band intensity
CP-His = CP-His (UniProt P04866); experiment: GST pull-down; details: scale: relative anti-His band intensity
[1] = molecular target: γb protein of BSMV, expressed by the virus; experiment: immunogold labeling with γb antibody, TEM; details: virions purified from infected N. benthamiana leaves at 5 dpi; n = 13; parent: est. 48; read off a plot
[2] = molecular target: BSMV virions (barley stripe mosaic virus (ND18 strain)); experiment: immunogold labelling of purified virions (TEM); virions purified from infected leaves, adsorbed onto nickel grids, rabbit antiserum against the CRP 1:100 in BL buffer 2 h at room temperature, goat anti-rabbit 10 nm gold, TEM at 80 kV; also after 0.02 mM EDTA at 4°C for 12 h (fewer gold particles)
BSMV virions = experiment: immunogold labeling with γb antibody, TEM; details: virions purified from infected N. benthamiana leaves at 5 dpi; n = 13; parent: est. 48; read off a plot
[3] = molecular target: γb-GFP-His (barley stripe mosaic virus (ND18 strain)); experiment: MST; γb-GFP-His held constant (10 μM), CP-His titrated from 20 μM; PBS with 0.1% Tween 20, 25°C, 20% LED-power, 40% MST-power, Monolith NT.115; no Zn^2+ added
[4] = molecular target: γb-GFP-His (barley stripe mosaic virus (ND18 strain)); experiment: MST; γb protein with 5 μM Zn^2+ in the buffer held constant, CP protein added as ligand; Monolith NT.115
[5] = molecular target: GST-γb (barley stripe mosaic virus (ND18 strain)); experiment: pull-down; GST pull-down: purified GST-tag protein with His-tag protein in 50 mM Tris-HCl pH 6.8, 500 mM NaCl, 1.5% glycerol, 0.6% Triton-X 100, 0.1% Tween 20, 3 h at 4°C; with or without 10 μg RNaseA, Zn^2+ 2-200 μM, 20 μM other divalent cations, or EDTA (200 μM in Fig 4D and 4E); blots with anti-GST or anti-His
[6] = molecular target: γb-GFP-His (barley stripe mosaic virus (ND18 strain)); experiment: MST; γb-GFP-His held constant (10 μM), CP-His titrated from 20 μM; PBS with 0.1% Tween 20, 25°C, 20% LED-power, 40% MST-power, Monolith NT.115; no Zn^2+ added; remark: listed apart in the source

**Q.** What does the source list for CP-His (from UniProt P04866) H13A?
**A.** response (GST-γb; EDTA (200 μM), parent: 0.05): 0.04; response (GST-γb; no EDTA, parent: 1.00): 0.11

**Q.** Which response (CP-His; EDTA (200 μM), parent: 0.20) does the source give for GST-γb H85A here?
**A.** 0.23

**Q.** What about the response (CP-His; no EDTA, parent: 1.00) of the same molecule?
**A.** 0.21

**Q.** For BSMV virions H13A, which response [1] is on record?
**A.** 3%

**Q.** With “γb protein of BSMV, expressed by the virus (natural protein)” as the molecule, how does the percent of virions labelled with gold particles (γb antibody) [2] read?
**A.** 50.9%

**Q.** For “γb protein of BSMV, expressed by the virus H85A”, which response (BSMV virions) is on record?
**A.** 8%

B1: CP-His (natural protein)
chain: MPNVSLTAKGGGHYIEDQWDTQVVEAGVFDDWWVHVEAWNKFLDNLRGINFSVASSRSQVAEYLAALDRDLPADVDRRFAGARGQIGSPNYLPAPKFFRLDKRTIAELTRLSRLTDQPHNNRDIELNRAKRATTNPSPPAQAPSENLTLRDVQPLKDSALHYQYVLIDLQSARLPVYTRKTFERELALEWIIPDAEEA
**Q.** What does the source list for B1?
**A.** Kd [3]: 0.46 µM; Kd [4]: 0.15 µM; fold reduction of the pull-down with 200 μM EDTA [5]: 5 fold; Kd [6]: 0.63 µM
